This note sets out measurements from the RNAGym collection of RNA variant scans (doi:10.7554/elife.90254).

Sequences and labels used below:
B1: LINE1-full (parent)
chain: UACGUAGGUGGUUUUCCCCUGAUAGUGCUAAGGGGGCCUGGAAGUUUGGACUGGGCAGAGCUCAACACAGCGUGGCAAAGUGGCUGUGGCUAGACUGCCUCUCUGGAUUCCUCGUCACUCAGCAGGGCAUCUCUGAGAGAAAUGCC

Variants of B1 are the subject of the data set. Kind of data set: self-cleavage, relative activity (ratio to wild type); higher = more cleavage; in vitro, sequencing; the parent is a self-cleaving ribozyme.
Take UACGUAGGUGGUUUUCCCCUGAUAGCGCUAAGGGGGCCUGGAAGUUUGGACUGGGCAGAGCUCAACACAGCGUGGCAAAGUGGCUGUGGCUAGAUUGCCUCUCUGGAUUCCUCGUCACUCAGCAGGGCAUCUCUGAGAGAAAUGCC [U26C C95U]: the self-cleavage amounted to 0.24.
The figure for UACGUAGGUGGUUUUCCCCUGAUAGCGCUAAGGGGGCCUGGAAGUUUGGACUGGGCAGAGCUCAACACAGCGUGGCAAAGUGGCUGUGGCUAGACUGCCUCUCUGGAUUCAUCGUCACUCAGCAGGGCAUCUCUGAGAGAAAUGCC [U26C C111A] is 1.04; for UACGUAGGUGGUUUUCCCCUGAUAGCGCUAAGGGGGCCUGGAAGUUUGGACUGGGCAGAGCUCAACACAGUGUGGCAAAGUGGCUGUGGCUAGACUGCCUCUCUGGAUUCCUCGUCACUCAGCAGGGCAUCUCUGAGAGAAAUGCC [U26C C71U] it is 0.9; for UACGUAGGUGGUUUUCCCCUGAUAGCGCUAAGGGGGCUUGGAAGUUUGGACUGGGCAGAGCUCAACACAGCGUGGCAAAGUGGCUGUGGCUAGACUGCCUCUCUGGAUUCCUCGUCACUCAGCAGGGCAUCUCUGAGAGAAAUGCC [U26C C38U] it is 1.29.
With UACGUAGGUGGUUUUCCCCUGAUAGCGUUAAGGGGGCCUGGAAGUUUGGACUGGGCAGAGCUCAACACAGCGUGGCAAAGUGGCUGUGGCUAGACUGCCUCUCUGGAUUCCUCGUCACUCAGCAGGGCAUCUCUGAGAGAAAUGCC [U26C C28U], the self-cleavage was found to be 1.15.
For UACGUAGGUGGUUUUCCCCUGAUAGCGCUAAGGGGGCCUGGAAGUUUGGACUGGGCAGAGCUCAACACAGCGUGGCAAAGUGGCUGUGGCUAGACUGCCUCUCUGGAUUCCUCGUCACUCAGCAGGGCAUCUCUGAGAGAGAUGCC [U26C A141G], the self-cleavage stood at 1.27.
The figure for UACGUAGGUGGUUUUCCCCUGAUAGCGCUAAGGGGGCCUGGAAGUUUGGACUGGGCAGAGCUCAACACAGCGUGGCAAAGUGGCUGUGGCUAGACUGCCUCUCUGGAUUCCUCGUCACUCAGCAGGGCAUCUCUGGGAGAAAUGCC [U26C A136G] is 1.42; for UACGUAGGUGGUUUUCCCCUGAUAGCGCUAAGGGGGCCUGGAAGUUUGGACUGGGCAGAGCUCAACACAGCGUGGCAAAGUGGCUGUGGCUAGACUGCCUCUCUGGAUUCCUCGUCACUCAGCAGGGCAUCUCUGAGAGGAAUGCC [U26C A140G] it is 1.19; for UACGUAGGUGGUUUUCCCCUGAUAGCGCUAAGGGGGCCUGGAAGUUUGGACUGGGCAGAGCUCAACACAGCGUGGCAAAGUGGCUGUGGCUAGACUGCCUCUCUGGAUUCCUCGUCACUCAGCAGGGCAUCUCUGAGAGCAAUGCC [U26C A140C] it is 1.19.
For UACGUAGGUGGUUUUCCCCUGAUAGCGCUAAGGGGGCCUGGAAGUUUGGACUGGGCAGAGCUCAACACAGCGUGGCAAAGUGGCUGUGGCUAGACUGCCUCUCUGGAUUCCUCGUCAUUCAGCAGGGCAUCUCUGAGAGAAAUGCC [U26C C118U] the value was 1.05; for UACGUAGGUGGUUUUCCCCUGAUAGCGCUAAGGGGGCCUGGAAGUUUGGACUGGGCAGAGCUCAACACAGCGUGGCAAAGUGGCUGUGGCUAGACUGCCUCUCUGGAUUCCUCGUUACUCAGCAGGGCAUCUCUGAGAGAAAUGCC [U26C C116U], 1.48.
In the case of UACGUAGGUGGUUUUCCCCUGAUAGCGCUAAGGGGGCCUGGAAGUUUGGACUGGGCAGAGCUCAACACAGCGUGGCAAAGUGGCUGUGGCUAGACUGCCUCUCUGGAUUCCUCGUCACUCAGUAGGGCAUCUCUGAGAGAAAUGCC [U26C C123U], the self-cleavage is 1.06.
The figure for UACGUAGGUGGUUUUCCCCUGAUAGCGCUAAGGGGGCCUGGAAGUUUGGACUGGGCAGAGCUCAACACAGCGUGGCAAAGUGGCUGUGGCUAGACUGCCUCUCUGGAUUCCUCGUCACUCAGCAGGGCUUCUCUGAGAGAAAUGCC [U26C A129U] is 1.24.
For UACGUAGGUGGUUUUCCCCUGAUAGCGCUAAGGGGGCCUGGAAGUUUGGACUGGGCAGAGCUCAACACAGCGUGGCAAAGUGGCUGUGGCUAGACUGCCUCUCUGGAUUCCUCGUCACUCAGCAGGGCAUAUCUGAGAGAAAUGCC [U26C C131A] the value was 0.78; for UACGUAGGUGGUUUUCCCCUGAUAGCGCUAAGGGGGCCUGGAAGUUUGGACUGGGCAGAGCUCAACACAGCGUGGCAAAGUGGCUGUGGCUAGACUGCCUCUCUGGAUUCCUCGUCACUCAGCAGGGCAUGUCUGAGAGAAAUGCC [U26C C131G], 2.07; for UACGUAGGUGGUUUUCCCCUGAUAGCGCUAAGGGGGCCUGGAAGUUUGGACUGGGCAGAGCUCAACACAGCGUGGCAAAGUGGCUGUGGCUAGACUGCCUCUCUGGAUUCCUCGUCACUUAGCAGGGCAUCUCUGAGAGAAAUGCC [U26C C120U], 1.17.
For UACGUAGGUGGUUUUCCCCUGAUAGCGCUAAGGGGGCCUGGAAGUUUGGACUGGGCAGAGCUCAACACAGCGUGGCAAAGUGGCUGUGGCUAGACUGCCUUUCUGGAUUCCUCGUCACUCAGCAGGGCAUCUCUGAGAGAAAUGCC [U26C C101U] the value was 1.46; for UACGUAGGUGGUUUUCCCCUGAUAGCGCUAAGGGGGCCUGGAAGUUUGGACUGGGCAGAGCUCAACACAGCGUGGCAAAGUGGCUGUGGCUAGACUGCCUCUCUGGAUUCCUCGUCACUCAGCAGGGCAUCUCUGAGCGAAAUGCC [U26C A138C], 1.28.
With UACGUAGGUGGUUUUCCCCUGAUAGCGCUAAGGGGGCCUGGAAGUUUGGACUGGGCAGAGCUCAACACAGCGUGGCAAAGUGGCUGUGGCUAGACUGCCUCUCUGGAUUCCUCGUCACUCAGCAGGGCAUCUCUGAGUGAAAUGCC [U26C A138U], the self-cleavage worked out at 1.57.
For UACGUAGGUGGUUUUCCCCUGAUAGCGCUAAGGGGGCCUGGAAGUUUGGACUGGGCAGAGCUCAACACAGCGUGGCAAAGUGGCUGUGGCUAGACUGCCUCUCUGGAUUCCUCGUCACUCAGCAGGGCAUCUCUGAGGGAAAUGCC [U26C A138G] the value was 1.78.
